According to paper PMC6650801:

Biological target: EGFR–eGFP fusion protein (epidermal growth factor receptor fused to the F64L, S65T mutant of GFP) (UniProt P00533)

With “murine EGF (epidermal growth factor) (from UniProt P01132 977-1029) (ligand)” the half recovery time T1/2 of EGFR–eGFP fluorescence in stripe FRAP on F1-10 cells, before and 2.5 min after 50 nM EGF was 6.4 s.
